Test results reported in PMC3251565.

Biological target: platelet integrin αIIbβ3 (human (endogenous in platelets)) (UniProt P08514)

For “Rhodostomin (from UniProt P30403) (natural protein)”, the IC50 (KI in the text) of inhibition of ADP-induced platelet aggregation in human PRP was 83.2 nM.
